Measured values as given in article PMC9270373.
Square brackets hold non-standard residues; d marks the D form. Ends that are not written are not given here. pT = C[C@@H](OP(=O)(O)O)[C@H](N)C(=O)O

Tests used:
[1] = target: potato 14-3-3 protein St14f (Solanum tuberosum L. (potato)); test: crystal structure; St14f free form, 2.5 Å; hanging drop, 12% (w/v) PEG 8000, 0.2 M ammonium tartrate pH 7, 277 K; three chains (A, B, C) in the asymmetric unit, dimers AA and BC
[2] = target: St14f S218L (Solanum tuberosum L. (potato)); test: thermal shift assay; 10 µM St14f with no and with 100 µM StFDL1 peptide; SYPRO Orange; 10 mM HEPES pH 7.5, 0.15 M NaCl; heated from 25 to 99 °C; ΔTm = melting temperature difference with and without the peptide
[3] = target: St14f D217A (Solanum tuberosum L. (potato)); test: as above
[4] = target: St14f Y215A (Solanum tuberosum L. (potato)); test: as above
[5] = target: potato 14-3-3 protein St14f (Solanum tuberosum L. (potato)); test: as above
[6] = target: St14f S214M (Solanum tuberosum L. (potato)); test: as above
[7] = target: St14f S218G (Solanum tuberosum L. (potato)); test: as above
[8] = target: St14f S218M (Solanum tuberosum L. (potato)); test: as above
[9] = target: St14f S214T (Solanum tuberosum L. (potato)); test: as above
[10] = target: St14f S214L (Solanum tuberosum L. (potato)); test: as above
[11] = target: St14f L229A (Solanum tuberosum L. (potato)); test: as above
[12] = target: St14f I221A M222A (Solanum tuberosum L. (potato)); test: as above

stoichiometry N [1]	ΔTm [2] [°C]	ΔTm [3] [°C]	ΔTm [4] [°C]	ΔTm [5] [°C]	ΔTm [6] [°C]	ΔTm [7] [°C]	ΔTm [8] [°C]	ΔTm [9] [°C]	ΔTm [10] [°C]	ΔTm [11] [°C]	ΔTm [12] [°C]	Molecule
2	–	–	–	–	–	–	–	–	–	–	–	potato 14-3-3 protein St14f (natural protein)
–	7.61	6.67	4.42	4.03	3.6	6.37	7.48	4.01	4.26	6.22	4.63	LNRTS[pT]APF [StFDL1 peptide (LNRTSpTAPF)]
